Measured values reported in patent US20120277143A1 (Janssen / Centocor, published 2012).

Key:
[1] = molecular target: T1, human IL13 R130Q (human, UniProt P35225 35-146, biotinylated (sites not given)); experiment: Luminex competition, 80 pM biotin-IL13 R130Q binding to IL13Ra2-Fc beads
T1 construct: Peprotech; also called IL13R13Q; R111Q
Description: Binding protein inhibition of IL13 binding to Rα2 was assessed using IL13Rα2-Fc (R&D Systems) conjugated to carboxylated Luminex microspheres according to the manufacturer's protocol. For biotinylation of IL13, recombinant human IL13 R130Q (Peprotech) was biotinylated at a 4:1 ratio using EZ-Link NHS-LC-Biotin (Pierce, #21336) for 2 hours at RT. The protein was dialyzed in PBS overnight to remove excess biotinylation reagent. For neutralization experiments, 5000 IL13 Rα2-Fc conjugated beads in 50 μl were added to each well of a 96-well filter plate (Millipore). 50 μl of biotinylated human IL13 at 1 ng/ml (80 pM) was mixed with an appropriate dilution of binding protein in Luminex Assay Buffer (PBS, 1% BSA, pH 7.4). The plate was incubated for 1 hour at RT in the dark on a plate shaker, set to shake vigorously to avoid bead aggregation. The plate was washed 3 times with 150 μl of wash buffer (PBS, 1% BSA, pH 7.4, 0.05% Tween-20) using a vacuum manifold followed by the addition of 50 μl of Streptavidin PE at 25 μg/ml and incubated at RT for 20 minutes. The plates were washed again and 100 μl of sheath fluid was added and the plate was placed on the shaker for 1 minute. Plates were read using a Luminex® 100 system; data were plotted as a function of binding protein concentration. IC₅₀ values were determined by fitting the data to the equation for sigmoidal dose response using PRIZM software (GraphPAD PRIZM).

[2] = molecular target: cyno IL13 (cynomolgus monkey, UniProt Q0PW92 21-132); experiment: cell-based or functional assay
[3] = molecular target: T2, human IL13 (human, UniProt P35225 35-146, biotinylated in the SPR assays (sites not given)); experiment: cell-based or functional assay
[4] = molecular target: T2, human IL13; experiment: SPR BIAcore, biotin-IL13 on SA chip, global fit
Description: Recombinant human IL13 (Peprotech) was minimally biotinylated on ice using sulfo-NHS-LCLC-Biotin and desalted into the experimental running buffer containing 10 mM HEPES, 150 mM NaCl, pH 7.4, 0.01% Tween-20, and 0.1 mg/mL BSA. Biotinylated IL13 was captured at three different surface densities (from about 150, 50, and 25 RU) onto three different BIAcore SA (streptavidin) sensor chips. Each binding protein sample was tested at 40 nM as the highest concentration in a 3-fold dilution series over the three different density IL13 surfaces. The dissociation phase for the highest concentration of the binding protein sample was monitored for one hour. The response data from each of the different density surfaces was globally fitted in order to extract estimates of the kinetic and affinity constants which are provided in Table 7 below.

[5] = molecular target: T3, human IL4 (human, UniProt P05112 25-153, biotinylated in the SPR and competition assays (sites not given)); experiment: SPR ProteOn, biotin-IL4 on neutravidin chip, 1:1 fit
T3 construct: Peprotech #200-04, mature protein produced in E. coli; also called hIL4; Interleukin 4
T3 sequence: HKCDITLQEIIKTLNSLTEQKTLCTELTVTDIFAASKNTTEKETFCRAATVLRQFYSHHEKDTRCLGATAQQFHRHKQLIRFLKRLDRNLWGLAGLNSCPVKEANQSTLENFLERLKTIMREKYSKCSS
Description: Purified binders selected as “hits” were ranked by their affinity on a ProteOn XPR-36 instrument (Bio-Rad). ProteOn is an optical biosensor instrument that measures protein-protein interactions in real time, based on Surface Plasmon Resonance technology similar to Biacore (GE). A rapid experimental protocol was performed as follows: On a GLC sensor chip (Bio-Rad), Neutravidin (Thermo Scientific) was covalently immobilized to a density of >5000 RU using amine coupling chemistry as described by the manufacturer. On one flow cell, biotinylated IL4 (Peprotech) was immobilized to a level of 250 RU, while another flow cell was used as reference, with neutravidin immobilized only. […] The retrieved values were used to rank the AR proteins by their affinity.

[6] = molecular target: T3, human IL4; experiment: cell-based or functional assay
[7] = molecular target: T3, human IL4; experiment: Luminex competition, 67 pM biotin-IL4 binding to IL4RA-Fc beads
Description: For biotinylation of IL4, recombinant human IL4 (Peprotech) was biotinylated at a 4:1 ratio using EZ-Link NHS-LC-Biotin (Pierce, #21336) for 2 hours at RT. The protein was dialyzed in PBS overnight to remove excess biotinylation reagent. Competition binding for cynomologous IL4 (SEQ ID NO: 5) was performed using the isolated protein biotinylated in the same manner.
AR protein inhibition of IL4 binding to IL4 RA was assessed using IL4 RA-Fc (R&D Systems), comprising the Gly24-His232 which represents the ECD (SEQ ID NO: 5) fused to a human IgGl-Fc and therefor a disulfide linked homodimer. The protein was conjugated to carboxylated Luminex microspheres according to the manufacturer's protocol. For neutralization experiments, 5000 IL4RA-Fc conjugated beads in 50 μl were added to each well of a 96-well filter plate (Millipore). Biotinylated human IL4 was mixed with an appropriate dilution of AR protein in Luminex Assay Buffer (PBS, 1% BSA, pH 7.4) to give a final concentration of 67 pM IL4. The plate was incubated for 1 hour at RT in the dark on a plate shaker, set to shake vigorously to avoid bead aggregation. The plate was washed twice with 150 μl of wash buffer (PBS, 0.1% BSA, pH 7.4, 0.05% Tween-20) using a vacuum manifold followed by the addition of 50 μl of Streptavidin PE at 25 μg/ml and incubated at RT for 20 minutes. The plates were washed again and 150 μl of sheath fluid was added and the plate was placed on the shaker for 5 minute. Plates were read using a Luminex® 100 system; data were plotted as a function of AR protein concentration. IC₅₀ values were determined by fitting the data to the equation for sigmoidal dose response using PRISM software (GraphPAD PRISM) (Table 6).

T1 sequence (P35225 35-146 limits assumed, stated change not applied): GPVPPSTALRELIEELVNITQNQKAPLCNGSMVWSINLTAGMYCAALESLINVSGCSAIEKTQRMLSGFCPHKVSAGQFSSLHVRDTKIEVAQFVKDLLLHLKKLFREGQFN
T2 sequence (P35225 other isoform, or with tags, fused parts or gaps limits assumed): as the sequence (P35225 35-146 limits assumed, stated change not applied) above, with Q110R counted along it
Chain of cyno IL13 (Q0PW92 entry or part of it): as the sequence (P35225 35-146 limits assumed, stated change not applied) above, with G1S, R10K, M42V, S67N, H83R, L100V counted along it

B1: 7D2 (designed binder)
chain: DLGKKLLEAARAGQDDEVRILMANGADVNAFDDFGSTPLHLAARSGHLEIVEVLLKHGADVNAHDMIGDTPLHLAAYHGHLEIVEVLLKYGADVNAKDTSGTTPLHLAADSGHLEIVEVLLKHGADVNAQDKFGKTAFDISIDNGNEDLAEILQKLN
notes: N-Cap-(AR)3-C-Cap
IC50 [1]: 0.0083 nM
Cyno IL13 STAT6 IC50 [2]: 307 pM
STAT6 Phospho IC50 [3]: 4.8 pM
TARC expression IC50 [3]: 14.6 pM
Kd [4]: 0.0955 nM
koff [4]: 0.000292 s⁻¹
kon [4]: 3.06e+06 M⁻¹ s⁻¹

B2: 9E11 (designed binder)
chain: DLGKKLLEAARAGQDDEVRILMANGADVNASDIYGSTPLHLAARHGHLEIVEVLLKNGADVNANDMIGDTPLHLAAYHGHLEIVEVLLKHGADVNASDITGETPLHLAAHNGHLEIVEVLLKYGADVNAQDKFGKTAFDISIDNGNEDLAEILQKLN
notes: N-Cap-(AR)3-C-Cap
IC50 [1]: 0.0058 nM
Cyno IL13 STAT6 IC50 [2]: 33.4 pM
STAT6 Phospho IC50 [3]: 0.9 pM
TARC expression IC50 [3]: 109 pM
Kd [4]: 0.021 nM
koff [4]: 1.3e-05 s⁻¹
kon [4]: 640000 M⁻¹ s⁻¹

B3: C06_6E9 (designed binder)
chain: DLGKKLLEAARAGQDDEVRILMANGADVNAIDSDGTTPLHLAAMDGHLEIVEVLLKYGADVNAVDWNGDTPLHLAAVDGHLEIVEVLLKYGADVNAQDNLGDTPLHLAAYYGHLEIVEVLLKHGADVNASDFHGITPLHLAAFSGHLEIVEVLLKYGADVNAQDKFGKTAFDISIDNGNEDLAEILQKLN
notes: ankyrin repeat protein; His-tagged, IMAC-purified
Kd [5]: 0.0749 nM
koff [5]: 7.16e-05 s⁻¹
kon [5]: 956000 M⁻¹ s⁻¹
A549 TARC Inhibition IC50 [6]: 131 pM
HEK Stat6 Inhibition IC50 [6]: 0.6 pM
Type 1 Complex inhibition IC50 [6]: 0.4 pM
IC50 [7]: 0.0076 nM

B4: 5D12 (designed binder)
chain: DLGKKLLEAARAGQDDEVRILMANGADVNAVDDYGSTPLHLAARQGHLEIVEVLLKNGADVNADDFIGDTPLHLAAFKGHLEIVEVLLKNGADVNASDITGETPLHLAATAGHLEIVEVLLKHGADVNAQDKFGKTAFDISIDNGNEDLAEILQKLN
notes: N-Cap-(AR)3-C-Cap
IC50 [1]: 0.0102 nM
Cyno IL13 STAT6 IC50 [2]: 159 pM
STAT6 Phospho IC50 [3]: 5.4 pM
TARC expression IC50 [3]: 34.1 pM
Kd [4]: 0.168 nM
koff [4]: 0.000184 s⁻¹
kon [4]: 1.1e+06 M⁻¹ s⁻¹

B5: 5H7 (designed binder)
chain: DLGKKLLEAARAGQDDEVRILMANGADVNAADMYGTTPQHLAARTGHLEIVEVLLKYGADVNAADFLGDTPLHLAAYHGHLEIVEVLLKHGADVNASDITGETPLHLAAHLGHLEIVEVLLKYGADVNAQDKFGKTAFDISIDNGNEDLAEILQKLN
notes: N-Cap-(AR)3-C-Cap
IC50 [1]: 0.158 nM
Cyno IL13 STAT6 IC50 [2]: 527 pM
STAT6 Phospho IC50 [3]: 42.9 pM
TARC expression IC50 [3]: 132 pM
Kd [4]: 0.263 nM
koff [4]: 0.000894 s⁻¹
kon [4]: 3.4e+06 M⁻¹ s⁻¹

B6: 7C6 (designed binder)
chain: DLGKKLLEAARAGQDDEVRILMANGADVNAMDKYGSTPLHLAARSGHLEIVEVLLKHGADVNATDFIGDTPLHLAAYHGHLEIVEVLLKHGADVNAEDITGETPLHLAAESGHLEIVEVLLKHGADVNAQDKFGKTAFDISIDNGNEDLAEILQKLN
notes: N-Cap-(AR)3-C-Cap
IC50 [1]: 0.0106 nM
Cyno IL13 STAT6 IC50 [2]: 48 pM
STAT6 Phospho IC50 [3]: 2.7 pM
TARC expression IC50 [3]: 159 pM
Kd [4]: 0.0464 nM
koff [4]: 0.000224 s⁻¹
kon [4]: 4.82e+06 M⁻¹ s⁻¹

B7: 6D4 (designed binder)
chain: DLGKKLLEAARAGQDDEVRILMANGADVNAADDYGSTPLHLAARSGHLEIVEVLLKHGADVNANDFIGDTPLHLAAYNGHLEIVEVLLKNGADVNATDITGETPLHLAAERGHLEIVEVLLKNGADVNTQDKFGKTAFDISIDNGNEDLAEILQKLN
notes: N-Cap-(AR)3-C-Cap
IC50 [1]: 0.0048 nM
Cyno IL13 STAT6 IC50 [2]: 51.3 pM
STAT6 Phospho IC50 [3]: 4.2 pM
TARC expression IC50 [3]: 83.3 pM
Kd [4]: 0.0776 nM
koff [4]: 9.08e-05 s⁻¹
kon [4]: 1.17e+06 M⁻¹ s⁻¹

B8: 5B9 (designed binder)
chain: DLGKKLLEAARAGQDDEVRILMANGADVNATDVFGSTPLHLAARHGHLEIVEVLLKHGADVNATDFIGDTPLHLAAYHGHLEIVEVLLKHGADVNAKNGETPLHLAAYHGHPDIVEVLLKHGADVNAQDKFGKTAFDISIDNGNEDLAEILQKLN
notes: N-Cap-(AR)3-C-Cap
IC50 [1]: 0.0134 nM
Cyno IL13 STAT6 IC50 [2]: 654 pM
STAT6 Phospho IC50 [3]: 16.5 pM
TARC expression IC50 [3]: 372 pM
Kd [4]: 0.169 nM
koff [4]: 0.000179 s⁻¹
kon [4]: 1.06e+06 M⁻¹ s⁻¹

B9: C06_53G6 (designed binder)
chain: NLGKKLLEAARAGQDDEVRILMANGADVNATDDWGDTLLHLAATDGHLEIVEVLLKYGADVNANDAIGDTPLHLAALYGHLEIVEVLLKYGADVNATDLHGFTPLHLAAFWGHLEIVEVLLKHGADVNAQDKFGKTAFDISIDNGNEDLAEILQKLN
notes: as for B3
Kd [5]: 0.0734 nM
koff [5]: 5.11e-05 s⁻¹
kon [5]: 696000 M⁻¹ s⁻¹
A549 TARC Inhibition IC50 [6]: 135 pM
HEK Stat6 Inhibition IC50 [6]: 2.1 pM
Type 1 Complex inhibition IC50 [6]: 0.9 pM
IC50 [7]: 0.0161 nM

B10: 6G11 (designed binder)
chain: DLGKKLLEAARAGQDDEVRILMANGADVNAEDILGITPLHLAAHHGHLEIVEVLLKHGADVNANDFAGYTPLHLAAVYGHLEIVEVLLKYGADVNATDAWGETPLHLAAYTGHLEIVEVLLKHDADVNAQDKFGKTAFDISIDNGNEDLAEILQKLN
notes: N-Cap-(AR)3-C-Cap
IC50 [1]: 0.0101 nM
Cyno IL13 STAT6 IC50 [2]: 1210 pM
STAT6 Phospho IC50 [3]: 19.8 pM
TARC expression IC50 [3]: 282 pM
Kd [4]: 0.106 nM
koff [4]: 8e-05 s⁻¹
kon [4]: 754000 M⁻¹ s⁻¹

B11: 10A6 (designed binder)
chain: DLGKKLLEAARAGQDDEVRILMANGADVNAIDHFDSTPLHLAARHGHLEIVEVLLKNGADVNADDFLGDTPLHLAAYHGHLDIVEVLLKHGADVNAQDKFGKTAFDISIDNGNEDLAEILQKLN
notes: N-Cap-(AR)2-C-Cap, only 2 ARs
IC50 [1]: 0.0075 nM
Cyno IL13 STAT6 IC50 [2]: 1930 pM
STAT6 Phospho IC50 [3]: 8 pM
TARC expression IC50 [3]: 123 pM
Kd [4]: 0.0729 nM
koff [4]: 0.000201 s⁻¹
kon [4]: 2.76e+06 M⁻¹ s⁻¹
